Data as given in patent US12594347B2, “Nanoparticulate drug delivery systems” (Duke University, priority 2018, dated 2026).
Values joined by “and” are separate entries in the source; they are usually repeats but may differ in a detail not shown here. Identical values can stand only once.

What was measured:
[1] = pH dependent drug release
Method: pH dependent drug release. […] Samples were incubated at 37° C. for 0.0, 0.25, […], 0.5, 1, 2, 4, 6, or 24 hr and were neutralized by addition of pH 7.4 (0.1 M NaH2PO4). […] Eluting peaks were detected with a UV-Visible detector set at 490 nm. […] HPLC data was quantified by integrating the area under the peak corresponding to the free drug. […] For pH 5.0 samples, data points were fit by nonlinear regression to a first order release model: F %, released=a[1−exp(−ln(2) t/t1/2)] (1) where t is the time (hrs) after incubation, t1/2 is the half-life (hrs) of release, and a (%) is the maximum extent of drug release.

[2] = system: C26 murine colon adenocarcinoma cells
Method: C26 murine colon adenocarcinoma cells were seeded (5000 cells/well) in a 96-well plate. After 24 h, cells were treated in triplicate with 3-fold serial dilutions of drugs beginning with 100 uM. After 72 h incubation, 20 μL of CellTiter 96 AQueous™ (Promega; Madison, WI) 3-(4,5-dimethlthiazol-2-yl)-5-(3-carboxymethoxphenyl)-2-(4-sulfophenyl)-2H-tetrazolium (MTS) reagent was added to each well followed by 3 h incubation at 37° C. The absorbance at 490 nm was determined using a Victor3™ microplate reader (Perkin Elmer; Waltham, MA). For each plate, blank wells (with no cells) were defined as 0% viability and wells treated with PBS were defined as 100% viability. The background absorbance at 490 nm was corrected by subtracting the average absorbance of the blank wells from each well. The percent viability was defined as the absorbance of each well normalized to the absorbance of wells treated with PBS. Inhibitory concentration (IC 50) values were calculated using a four-parameter logistic fit in the Prism program (GraphPad Software, San Diego, CA, USA).

[3] = Canine serum chemistry one week after administration; type: in vivo, dogs (beagles and hounds); conditions: dogs
From the text: Canine pharmacokinetics and toxicities. […] If noted, supportive care was provided.

C26 tumors = test: Tumor regression and survival, C26 colon cancer model; type: in vivo, Balb/C mice
Method: Cell culture and tumor inoculation.
Tumor regression and survival. […] Tumor size and body weight were monitored over a span of two months. Tumor volume was calculated as follows: Volume [mm^3]=length×width 2×π/6. Mice with a tumor volume greater 1000 mm^3 or body weight loss greater than 15% were euthanized.

[4] = one week after administration, individual subjects

B1: ABDN-CP-DOX (conjugate)
chain: LAEAKVLANRELDKYGVSDYYKNLINNAKTVEGVKALIDEILAALPVPGAGVPGAGVPGAGVPGAGVPGAGVPGAGVPGAGVPGAGVPGAGVPGAGVPGAGVPGAGVPGAGVPGAGVPGAGVPGAGVPGAGVPGAGVPGAGVPGAGVPGAGVPGAGVPGAGVPGAGVPGAGVPGAGVPGAGVPGAGVPGAGVPGAGVPGAGVPGAGVPGAGVPGAGVPGAGVPGAGVPGAGVPGAGVPGAGVPGAGVPGAGVPGAGVPGAGVPGAGVPGAGVPGAGVPGAGVPGAGVPGAGVPGAGVPGAGVPGAGVPGAGVPGAGVPGAGVPGAGVPGAGVPGAGVPGAGVPGAGVPGAGVPGAGVPGAGVPGAGVPGAGVPGAGVPGAGVPGAGVPGAGVPGAGVPGAGVPGAGVPGAGVPGAGVPGAGVPGAGVPGAGVPGAGVPGAGVPGAGVPGAGVPGAGVPGAGVPGAGVPGAGVPGAGVPGAGVPGAGVPGAGVPGAGVPGAGVPGAGVPGAGVPGAGVPGAGVPGAGVPGAGVPGAGVPGAGVPGAGVPGAGVPGAGVPGAGVPGAGVPGAGVPGAGVPGAGVPGAGVPGAGVPGAGVPGAGVPGAGVPGAGVPGAGVPGAGVPGAGVPGAGVPGAGVPGAGVPGAGVPGAGVPGAGVPGAGVPGAGVPGAGVPGAGVPGAGVPGAGVPGAGVPGAGVPGAGVPGAGVPGAGVPGAGVPGAGVPGAGVPGAGVPGAGVPGAGVPGAGVPGAGVPGAGVPGAGCGGCGGCGGCGGCGGCGGCGGCGG
Q: For B1, which “in vitro drug release (in words)” value ([1]; acidic conditions, pH 5.0, 37° C.) is on record?
A: The value was “released the loaded DOX”.

Q: What about the “in vitro drug release / stability (in words)” value ([1]; pH 7.4, 37° C.) of the same molecule?
A: The value was “remained stable”.

Q: And the IC50 [2]?
A: The IC50 was 310 nM.

Q: And the ALT [3, 4]?
A: The ALT was 18 IU/L and 21 IU/L.

Q: And the AST [3, 4]?
A: The AST was 20 IU/L and 31 IU/L.

Q: And the “Alb/Glob Ratio” value [3, 4]?
A: Its value is 1.73 and 1.57.

Q: And the Albumin [3, 4]?
A: Its Albumin is 3.8 g/dL and 3.6 g/dL.

Q: What about the “Alkaline Phosphatase” value [3, 4] of the same molecule?
A: The value was 26 IU/L and 31 IU/L.

Q: And the Amylase [3, 4]?
A: Its Amylase is 597 IU/L and 677 IU/L.

Q: What about the “Anion Gap” value [3, 4] of the same molecule?
A: Its value is 21 and 20.4.

Q: And the Bicarbonate [3, 4]?
A: The Bicarbonate was 22 mmol/L and 21 mmol/L.

Q: And the Bilirubin-Total [3, 4]?
A: The Bilirubin-Total was under 0.2 mg/dL.

Q: What about the CK [3, 4] of the same molecule?
A: Its CK is 141 IU/L and 296 IU/L.

Q: What about the Calcium [3, 4] of the same molecule?
A: The Calcium was 10.3 mg/dL and 10.7 mg/dL.

Q: What about the Chloride [3, 4] of the same molecule?
A: Its Chloride is 109 mmol/L and 111 mmol/L.

Q: What about the Cholesterol [3, 4] of the same molecule?
A: Its Cholesterol is 153 mg/dL and 94 mg/dL.

Q: What about the Creatinine [3, 4] of the same molecule?
A: The Creatinine was 0.7 mg/dL.

Q: What about the GGT [3, 4] of the same molecule?
A: Its GGT is under 3 IU/L.

Q: What about the Globulin [3, 4] of the same molecule?
A: The Globulin was 2.2 g/dL and 2.3 g/dL.

Q: And the Glucose [3, 4]?
A: The Glucose was 90 mg/dL and 82 mg/dL.

Q: And the Lipase [3, 4]?
A: The Lipase was 57 IU/L.

Q: What about the Magnesium [3, 4] of the same molecule?
A: Its Magnesium is 1.9 mg/dL and 2.2 mg/dL.

Q: And the “Na/K Ratio” value [3, 4]?
A: Its value is 37 and 33.6.

Q: What about the Osomolality-Calc. [3, 4] of the same molecule?
A: The Osomolality-Calc. was 293.8 mOsm/kg and 293.4 mOsm/kg.

Q: And the Phosphorus [3, 4]?
A: The Phosphorus was 4.1 mg/dL and 4.7 mg/dL.

Q: What about the Potassium [3, 4] of the same molecule?
A: Its Potassium is 4 mmol/L and 4.4 mmol/L.

Q: What about the Protein-Total [3, 4] of the same molecule?
A: Its Protein-Total is 6 g/dL and 5.9 g/dL.

Q: And the Sodium [3, 4]?
A: The Sodium was 148 mmol/L.

Q: And the “Urea Nitrogen” value [3, 4]?
A: The value was 17 mg/dL and 15 mg/dL.

Q: What about the “abnormalities in blood serum chemistry (in words)” value ([3]; one week after infusion) of the same molecule?
A: Its value is “no hematology or serum chemistry abnormalities”.

Q: What about the “tumor bearing mice that survived 60 days after treatment” value (C26 tumors; DOX equivalent dose of 20 mg/kg BW) of the same molecule?
A: The value was 50%.

Q: And the “tumor growth (in words)” value (C26 tumors; mouse C26 colon cancer model, single treatment on day 0)?
A: The value was “significantly slower”.
